Experimental data as given in patent US20110104167A1, “Compositions and Methods for Diagnosing and Treating Insulin Resistance” (YEDA RESEARCH AND DEVELOPMENT CO. LTD., priority 2004, published 2011).

Tests used:
Fao cells [1] = assay: Insulin-induced Tyr phosphorylation of Myc-IRS-1 in adenovirus-infected Fao cells; format: cell-based, rat; conditions: 60 min insulin
Protocol: FIGS. 3a-b show Insulin-induced Tyr phosphorylation of IRS-1^7A in Fao cells. FIG. 3a—Fao cells were infected with Ad-Myc-IRS-1^WT or Ad-Myc-IRS-1^7A at 7×10^7 PFU/ml. Following 48 hours, the cells were starved in serum-free RPMI medium for 16 h and were then treated with insulin for the indicated times. Cell extracts were prepared and samples (1 mg) were subjected to immunoprecipitation (IP) with anti-Myc antibodies. Immunocomplexes were resolved on 7.5% SDS-PAGE and immunoblotted with anti-pY antibodies. In parallel, samples (100 μg) of total cell extracts were resolved on 7.5% SDS-PAGE and immunoblotted with anti-Myc antibodies. FIG. 3b—The bands corresponding to anti-pY/total Myc-IRS-1 were quantified by densitometry and are presented as a bar graph. Results are of a representative experiment carried out in duplicate.
FIGS. 11a-c show the effects of TPA and anisomycin on insulin-stimulated Tyr phosphorylation of IRS-1^WT, IRS-1^7A and IRS-1^408A. Fao cells were infected with Adeno-myc-IRS-1 wild type (WT); the 7A mutant; or the S408A mutant at a titer of 4-6×10^7 PFU/ml. Following 48 hours the cells were deprived of serum for 16 h, and were then treated for 60 min with 200 nM TPA (FIG. 11a), or 50 ng/ml anisomycin (FIG. 11b), followed by treatment with 100 nM insulin for the indicated times. […]

Fao cells [2] = assay: Effect of inducers of insulin resistance on insulin-stimulated Tyr phosphorylation of IRS-1 in Fao cells; format: cell-based, rat
Protocol: FIGS. 5a-c show the effects of TPA and anisomycin on insulin-induced Tyr phosphorylation of IRS-1^7A in Fao cells. Fao cells were infected with Ad-Myc-IRS-1^WT or Ad-Myc-IRS-1^7A at 7×10^7 PFU/ml. Following 48 hours the cells were deprived of serum for 16 h, and were then treated for 60 min with 200 nM TPA (FIG. 5a); 50 ng/ml of anisomycin (FIG. 5b) or 1 μg/ml of anisomycin (FIG. 5c). This was followed by treatment with 100 nM insulin for 2 min (FIG. 5a) or for the indicated times (FIGS. 5b-c). Cell extracts were prepared, and samples (1 mg) were subjected to immunoprecipitation (IP) with anti-Myc antibodies (FIG. 5a). Immunocomplexes were resolved on 7.5 SDS-PAGE and were immunoblotted with the indicated antibodies. Alternatively, total cell extracts (FIGS. 5b-c) were resolved on 7.5% SDS-PAGE and immunoblotted with the indicated antibodies. Results of a representative of four experiments are presented. The results of two independent experiments done in duplicates were quantified (FIG. 5a, right panel).
FIGS. 6a-b show the dose dependent effect of Palmitic acid on Insulin-induced Tyr phosphorylation of IRS-1 mutants in Fao cells. Fao cells were infected with Ad-Myc-IRS-1^WT or Ad-Myc-IRS-1^7A at 7×10^7 PFU/ml. Following 24 hours the cells were deprived of serum for 12 h, and were then further incubated for 12 h with or without the indicated concentrations of palmitic acid in serum free medium prior to being stimulated with 100 nM insulin for the indicated times. Cell extracts (100 μg) were resolved on 7.5% SDS-PAGE and immunoblotted with anti-PY and anti-Myc antibodies. The results of two independent experiments done in duplicates were quantified.
FIGS. 11a-c show the effects of TPA and anisomycin on insulin-stimulated Tyr phosphorylation of IRS-1^WT, IRS-1^7A and IRS-1^408A. Fao cells were infected with Adeno-myc-IRS-1 wild type (WT); the 7A mutant; or the S408A mutant at a titer of 4-6×10^7 PFU/ml. Following 48 hours the cells were deprived of serum for 16 h, and were then treated for 60 min with 200 nM TPA (FIG. 11a), or 50 ng/ml anisomycin (FIG. 11b), followed by treatment with 100 nM insulin for the indicated times. Cell extracts were prepared, samples (1 mg) were subjected to immunoprecipitation (IP) with anti-Myc antibodies. Immunocomplexes were resolved on 7.5% SDS-PAGE and immunoblotted with anti-PY or anti IRS-1 antibodies.
Infection of Fao cells with adenovirus—Fao cells were grown in RPMI medium containing 10% FCS. At 70% confluence cells were infected with adenoviruses harboring the gene of interest at a titer of 7 10^7 PFU/ml. After incubation for 2 h hours at 37° C., the virus-containing medium was diluted 1:5 in fresh RPMI medium. After 24 h the medium was replaced with a fresh RPMI medium containing 10% FCS. […]

B1: IRS-1^408A: mouse IRS-1 with Ser408 mutated to Ala (protein)
chain: MEQKLISEEDLNMASPPPDTDGFSDVRKVGYLRKPKSMHKRFFVLRAASEAGGPARLEYYENEKKWRHKSSAPKRSIPLESCFNINKRADSKNKHLVALYTRDEHFAIAADSEAEQDSWYQALLQLHNRAKAHHDGAGGGCGGSCSGSSGVGEAGEDLSYDTGPGPAFKEVWQVILKPKGLGQTKNLIGIYRLCLTSKTISFVKLNSEAAAVVLQLMNIRRCGHSENFFFIEVGRSAVTGPGEFWMQVDDSVVAQNMHETILEAMRAMSDEFRPRSKSQSSSSCSNPISVPLRRHHLNNPPPSQVGLTRRSRTESITATSPASMVGGKPGSFRVRASSDGEGTMSRPASVDGSPVSPSTNRTHAHRHRGSSRLHPPLNHSRSIPMPSSRCSPSATSPVSLSSSSTSGHGSTSDCLFPRRSAASVSGSPSDGGFISSDEYGSSPCDFRSSFRSVTPDSLGHTPPARGEEELSNYICMGGKGASTLAAPNGHYILSRGGNGHRYIPGANLGTSPALPGDEAAGAADLDNRFRKRTHSAGTSPTISHQKTPSQSSVASIEEYTEMMPAAYPPGGGSGGRLPGYRHSAFVPTHSYPEEGLEMHHLERRGGHHRPDTSNLHTDDGYMPMSPGVAPVPSNRKGNGDYMPMSPKSVSAPQQIINPIRRHPQRVDPNGYMMMSPSGSCSPDIGGGSSSSSSISAAPSGSSYGKPWTNGVGGHHTHALPHAKPPVESGGGKLLPCTGDYMNMSPVGDSNTSSPSECYYGPEDPQHKPVLSYYSLPRSFKHTQRPGEPEEGARHQHLRLSSSSGRLRYTATAEDSSSSTSSDSLGGGYCGARPESSLTHPHHHVLQPHLPRKVDTAAQTNSRLARPTRLSLGDPKASTLPRVREQQQQQQSSLHPPEPKSPGEYVNIEFGSGQPGYLAGPATSRSSPSVRCPPQLHPAPREETGSEEYMNMDLGPGRRATWQESGGVELGRIGPAPPGSATVCRPTRSVPNSRGDYMTMQIGCPRQSYVDTSPVAPVSYADMRTGIAAEKASLPRPTGAAPPPSSTASSSASVTPQGATAEQATHSSLLGGPQGPGGMSAFTRVNLSPNHNQSAKVIRADTQGCRRRHSSETFSAPTRAGNTVPFGAGAAVGGSGGGGGGGSEDVKRHSSASFENVWLRPGDLGGVSKESAPVCGAAGGLEKSLNYIDLDLAKEHSQDCPSQQQSLPPPPPHQPLGSNEGNSPRRSSEDLSNYASISFQKQPEDRQ
- Tyr phosphorylation level after prolonged insulin treatment (Example 9) (Fao cells [1]): reduced to a similar extent
- protection against the inhibitory effects of anisomycin (Fao cells [2]; 50 ng/ml anisomycin 60 min): could not protect
- protection from the inhibitory effects of TPA on insulin-stimulated Tyr phosphorylation (Fao cells [2]; 200 nM TPA 60 min): partially prevented
